Measurements reported in paper doi:10.1101/2019.12.19.882696.

Biological target: Cys-OmpX labelled with Alexa Fluor 488 (E. coli) (UniProt P0A917)
Assay: MST

E. coli SurA wild type (mature, tag cleaved) (from UniProt P0ABZ6 21-428) (natural protein)
Kd: 0.8 µM
